Assay results: patent publication US20260226176A1 (THERANOVIR, published 2026)

Assays:
[1] = target: T1, native human NRP-1 on the cell surface (human, UniProt O14786 22-923); assay: flow cytometry, MDA-MB-231 cells, 40 ug/ml, +chondroitinase
T1 construct: whole, on cells; endogenous protein; isoform and glycosaminoglycan state on the cells not defined; also called native NRP-1 on MDA-MB-231 cells; native form of NRP-1 protein on the CTCs cell surface
Method: (§1) Chondroitinase (C2905, Sigma) was reconstituted in a 0.01% BSA aqueous solution. The MDA-MB-231 cells were treated with chondroitinase (1 U/ml) for 2 hours at 37° C. The cells were detached using cell dissociation solution non-enzymatic (C5914, Sigma). 300,000 cells per condition were washed with 2% FBS in PBS and then incubated with different antibodies of interest or their respective isotype controls at 40 μg/ml for 30 min at 4° C. After wash, an Alexa 488-conjugated anti-human immunoglobulin antibody (20022-1, Biotium) was added at 10 μg/ml for 30 min at 4° C. After a final wash, fluorescence, size and granularity of cells were measured by the LSR Fortessa cytometer (BD Biosciences).

[2] = target: T2, recombinant murine NRP-1 (5994-N1-050, Bio-Techne) (murine, UniProt P97333 22-856); assay: ELISA, antibody 10 µg/ml, 1 µg immobilised murine NRP-1
T2 construct: extracellular domain; bought protein; also called mouse recombinant NRP-1

[3] = target: T1, native human NRP-1 on the cell surface; assay: flow cytometry, MDA-MB-231 cells, 40 ug/ml, -chondroitinase
Method: as §1

[4] = target: T1, native human NRP-1 on the cell surface; assay: flow cytometry, MDA-MB-231 cells, 40 ug/ml, with against without chondroitinase
Method: as §1

[5] = target: T3, NRP-1 peptide (Npep); assay: ELISA, antibody 10 µg/ml, 2 µg immobilised Npep
T3 construct: also called synthetic peptide Npep
T3 peptide: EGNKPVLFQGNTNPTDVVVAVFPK

[6] = target: T1, native human NRP-1 on the cell surface; assay: flow cytometry, MDA-MB-231 cells, 10 ug/ml, with against without heparinase
[7] = target: UV excision repair protein RAD23 homolog B (human) (UniProt P54727); assay: co-IP from CTC41.5E lysate, LC-MS/MS, peak area against isotype IP
[8] = target: Histone H3.1 (human) (UniProt P68431); assay: as above
[9] = target: Werner syndrome ATP-dependent helicase (human) (UniProt Q14191); assay: as above
[10] = target: Replication protein A 70 kDa DNA-binding subunit (human) (UniProt P27694); assay: as above
[11] = target: DNA-directed RNA polymerase I subunit RPA1 (human) (UniProt O95602); assay: as above
[12] = target: X-ray repair cross-complementing protein 6 (human) (UniProt P12956); assay: as above
[13] = target: Poly [ADP-ribose] polymerase 2 (human) (UniProt Q9UGN5); assay: as above
[14] = target: DNA topoisomerase 1 (human) (UniProt P11387); assay: as above
[15] = target: DNA mismatch repair protein Msh6 (human) (UniProt P52701); assay: as above
[16] = target: DNA ligase 3 (human) (UniProt P49916); assay: as above
[17] = target: Core histone macro-H2A.1 (human) (UniProt O75367); assay: as above
[18] = target: DNA topoisomerase 2-beta (human) (UniProt Q02880); assay: as above
[19] = target: Poly [ADP-ribose] polymerase 1 (human) (UniProt P09874); assay: as above
[20] = target: DNA mismatch repair protein Msh2 (human) (UniProt P43246); assay: as above
[21] = target: FACT complex subunit SPT16 (human) (UniProt Q9Y5B9); assay: as above
[22] = target: Histone H2A.Z (human) (UniProt P0C0S5); assay: as above
[23] = target: X-ray repair cross-complementing protein 5 (human) (UniProt P13010); assay: as above
[24] = target: DNA repair protein complementing XP-C cells (human) (UniProt Q01831); assay: as above
[25] = target: DNA-dependent protein kinase catalytic subunit (DNA-PK) (human) (UniProt P78527); assay: as above
[26] = target: SWI/SNF-related matrix-associated actin-dependent regulator of chromatin subfamily A member 5 (human) (UniProt O60264); assay: as above
[27] = target: Sister chromatid cohesion protein PDS5 homolog B (human) (UniProt Q9NTI5); assay: as above
[28] = target: DNA topoisomerase 2-alpha (human) (UniProt P11388); assay: as above

B1: variant 4 of a-NRP1_LEP n° 1 (antibody, V domains shown)
VH: EVQLVESGGGLVQPGGSLRLSCAASGFTFSSFGMHWVRQAPGKGLEWVAYISSGSSTIHYADSVKGRFTISRDNAKNSLYLQMNSLRAEDTAMYYCARRHYGSSRYWYFDVWGQGTTVTVSS
VL: EIVLTQSPATLSLSPGERATLSCRASQSVKSYLAWYQQKPGQAPRLLIYYASSRATGIPARFSGSGSGTDFTLTISSLEPEDFAVYYCQQYSESPYTFGQGTKLEIK
notes: humanized variant of 21B10; isotype control hIgG4; also called variant 4 a-NRP1_LEP; variant n°4 a-NRP1_LEP
For B1, the percentage of binding [1] was 86.4%, the Absorbance [2] was 0.986 and the percentage of binding [3] was 93.2%. For the same binder, the “delta (% of control)” value [4] was -6.8%, the Absorbance [5] was 0.855 and the “delta (% of control)” value [6] was -2.3%. For the same binder, the Ratio Area V4/IgG4 [7] was 307, the Ratio Area V4/IgG4 [8] was 304 and the Ratio Area V4/IgG4 [9] was 759. For the same binder, the Ratio Area V4/IgG4 [10] was 13.6, the Ratio Area V4/IgG4 [11] was 785 and the Ratio Area V4/IgG4 [12] was 58.8. For the same binder, the Ratio Area V4/IgG4 [13] was 1, the Ratio Area V4/IgG4 [14] was 6880 and the Ratio Area V4/IgG4 [15] was 813. It also gave a Ratio Area V4/IgG4 [16] of 7770, a Ratio Area V4/IgG4 [17] of 8780 and a Ratio Area V4/IgG4 [18] of 50.1. For the same binder, the Ratio Area V4/IgG4 [19] was 709, the Ratio Area V4/IgG4 [20] was 335 and the Ratio Area V4/IgG4 [21] was 5490. The Ratio Area V4/IgG4 [22] was 624, the Ratio Area V4/IgG4 [23] was 38.7 and the Ratio Area V4/IgG4 [24] was 480. The Ratio Area V4/IgG4 [25] was 10.5, the Ratio Area V4/IgG4 [26] was 589 and the Ratio Area V4/IgG4 [27] was 12.5. It also gave a Ratio Area V4/IgG4 [28] of 538.
